From paper doi:10.1101/2020.01.24.918722, “Calsyntenin-3 directly interacts with neurexins to orchestrate excitatory synapse development in the hippocampus” (bioRxiv, 2020)

T1: His-HA-Clstn3 Ecto (extracellular domain of mouse Clstn3) (mouse, UniProt Q99JH7 21-846)
T1 construct: extracellular domain of mouse calsyntenin-3, aa 21-846; also called His-HA-Clstn3 Full (methods); source: purified recombinant protein (pCAGGS vector); not shown: His6, N-terminal, kept; HA, N-terminal, kept
T1 sequence (looked up): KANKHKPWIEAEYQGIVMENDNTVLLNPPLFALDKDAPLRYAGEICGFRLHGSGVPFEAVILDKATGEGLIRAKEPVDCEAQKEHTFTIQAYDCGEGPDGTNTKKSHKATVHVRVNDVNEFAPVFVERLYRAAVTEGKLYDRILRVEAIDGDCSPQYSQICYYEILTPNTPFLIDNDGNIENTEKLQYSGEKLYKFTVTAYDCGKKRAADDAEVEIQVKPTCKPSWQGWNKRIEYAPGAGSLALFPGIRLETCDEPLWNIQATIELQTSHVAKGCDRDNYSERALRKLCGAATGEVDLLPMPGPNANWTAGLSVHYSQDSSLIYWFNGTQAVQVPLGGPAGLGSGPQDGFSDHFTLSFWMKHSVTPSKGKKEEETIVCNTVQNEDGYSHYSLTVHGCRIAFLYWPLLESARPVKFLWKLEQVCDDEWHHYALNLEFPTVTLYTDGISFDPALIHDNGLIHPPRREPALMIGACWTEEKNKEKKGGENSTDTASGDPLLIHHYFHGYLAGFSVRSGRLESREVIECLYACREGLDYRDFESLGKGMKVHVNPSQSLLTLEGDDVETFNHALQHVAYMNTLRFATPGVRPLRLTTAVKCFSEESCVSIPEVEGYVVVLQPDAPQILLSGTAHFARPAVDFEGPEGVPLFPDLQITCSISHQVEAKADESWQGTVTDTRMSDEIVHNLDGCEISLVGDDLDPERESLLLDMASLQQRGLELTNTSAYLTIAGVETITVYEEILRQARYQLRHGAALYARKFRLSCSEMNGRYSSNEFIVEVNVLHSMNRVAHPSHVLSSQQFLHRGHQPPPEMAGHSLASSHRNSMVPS

B1: Ig-mNrxn1β^+SS4 (Fc fusion)
chain: not shown
notes: signal peptide in the construct; extracellular region of mouse neurexin-1β with the SS4 insert, aa 1-389; also called Ig-Nrxn1β^+SS4; pCMV-IgC-mNrxn1β^+SS4; source: HEK293T, purified (protein A-Sepharose)
B2: His-HA-Clstn3 Cad (extracellular, cadherin domains) (domain or fragment, mouse, UniProt Q99JH7 21-269, looked up)
chain: KANKHKPWIEAEYQGIVMENDNTVLLNPPLFALDKDAPLRYAGEICGFRLHGSGVPFEAVILDKATGEGLIRAKEPVDCEAQKEHTFTIQAYDCGEGPDGTNTKKSHKATVHVRVNDVNEFAPVFVERLYRAAVTEGKLYDRILRVEAIDGDCSPQYSQICYYEILTPNTPFLIDNDGNIENTEKLQYSGEKLYKFTVTAYDCGKKRAADDAEVEIQVKPTCKPSWQGWNKRIEYAPGAGSLALFPGIR
notes: mouse calsyntenin-3, aa 21-269 (cadherin domains); source: purified recombinant protein (pCAGGS vector); not shown: His6, N-terminal, kept; HA, N-terminal, kept

How the values were obtained:
[1] = target: T1, His-HA-Clstn3 Ecto (extracellular …); test: pull-down; direct protein-interaction assay: 10 μg purified Ig-Nrxn1 with 4 μg purified His-HA-Clstn3, 2 h at 4°C, 25 mM Tris pH 7.5, 30 mM MgCl2, 40 mM NaCl, 0.5% Triton X-100; precipitated with Talon resin, blot with anti-human IgG; details: both partners purified
[2] = target: B1; test: as above; details: both partners purified

binding result [1] | binding result [2] | Binder
binds | – | B1
– | binds | B2
